Assay results as given in patent US20220411483A1 (Chugai, published 2022).

T1: FcγRIIb extracellular domain with C-terminal His tag (human, UniProt P31994 43-217)
T1 construct: extracellular domain; also called FcgRIIb; not shown: His tag at the C terminus
T1 sequence (looked up): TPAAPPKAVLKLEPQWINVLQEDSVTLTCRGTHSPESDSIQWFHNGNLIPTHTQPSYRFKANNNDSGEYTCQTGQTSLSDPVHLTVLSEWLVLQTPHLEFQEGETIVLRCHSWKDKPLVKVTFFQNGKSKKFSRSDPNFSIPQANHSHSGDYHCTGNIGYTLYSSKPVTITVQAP

T2: FcγRIIa R type extracellular domain with C-terminal His tag (human, UniProt P12318 34-217)
T2 construct: extracellular domain; also called FcgRIIaR; not shown: His tag at the C terminus
T2 sequence (looked up): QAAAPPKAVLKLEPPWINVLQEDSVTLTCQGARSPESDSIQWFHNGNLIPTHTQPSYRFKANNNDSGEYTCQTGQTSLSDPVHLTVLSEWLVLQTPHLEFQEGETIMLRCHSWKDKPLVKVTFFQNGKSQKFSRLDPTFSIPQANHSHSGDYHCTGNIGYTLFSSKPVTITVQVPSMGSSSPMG

T3: FcγRIIa H type extracellular domain with C-terminal His tag (human, UniProt P12318 34-217)
T3 construct: extracellular domain; also called FcgRIIaH; not shown: His tag at the C terminus
T3 sequence (looked up): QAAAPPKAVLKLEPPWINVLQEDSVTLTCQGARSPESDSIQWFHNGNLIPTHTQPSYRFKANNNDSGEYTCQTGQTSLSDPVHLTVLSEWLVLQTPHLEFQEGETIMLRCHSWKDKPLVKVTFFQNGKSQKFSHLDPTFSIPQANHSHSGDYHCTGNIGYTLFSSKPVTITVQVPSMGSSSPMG


Legend:
[1] = target: T1, FcγRIIb extracellular domain with …; test: SPR, antibody captured, FcgR analyte
[2] = target: T2, FcγRIIa R type extracellular domain …; test: SPR, antibody captured, FcgR analyte
[3] = target: T3, FcγRIIa H type extracellular domain …; test: SPR, antibody captured, FcgR analyte
[4] = target: T4, FcγRIa extracellular domain with C-terminal His tag (human, UniProt P12314 16-292); test: SPR, antibody captured, FcgR analyte
T4 construct: also called FcgRIa; CD64; not shown: His tag at the C terminus
T4 sequence (P12314 16-292): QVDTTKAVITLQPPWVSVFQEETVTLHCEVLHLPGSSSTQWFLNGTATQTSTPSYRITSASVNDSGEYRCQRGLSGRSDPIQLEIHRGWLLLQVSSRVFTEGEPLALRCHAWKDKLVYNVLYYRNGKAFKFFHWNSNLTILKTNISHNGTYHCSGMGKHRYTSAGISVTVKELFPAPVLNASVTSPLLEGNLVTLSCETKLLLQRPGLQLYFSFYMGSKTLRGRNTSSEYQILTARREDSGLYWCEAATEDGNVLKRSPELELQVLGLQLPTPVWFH

[5] = target: T1, FcγRIIb extracellular domain with …; test: SPR; KD of IL6R-B3/IL6R-L divided by KD of variant
[6] = target: T2, FcγRIIa R type extracellular domain …; test: SPR; KD of IL6R-B3/IL6R-L divided by KD of variant

Kd [1] [nM] | Kd [2] [nM] | Kd [3] [nM] | Kd [4] [nM] | Relative FcgRIIb-binding Activity [5] | Relative FcgRIIaR-binding Activity [6] | Binder
3 | 79 | 1300 | 8.9 | 1040 | 13.7 | IL6R-BP536/IL6R-L (antibody, human IgG1, kappa, name in EU numbering, human IgG1) heavy: QVQLQESGPGLVKPSETLSLTCAVSGHSISHDHAWSWVRQPPGEGLEWIGFISYSGITNYNPSLQGRVTISRDNSKNTLYLQMNSLRAEDTAVYYCARSLARTTAMDYWGEGTLVTVSSASTKGPSVFPLAPSSKSTSGGTAALGCLVKDYFPEPVTVSWNSGALTSGVHTFPAVLQSSGLYSLSSVVTVPSSSLGTQTYICNVNHKPSNTKVDKKVEPKSCDKTHTCPPCPAPDLLGDDSVFLFPPKPKDTLMISRTPEVTCVVIDVSEEDGEVKFNWYVDGVEVHNAKTKPREEQDNSTYRVVSVLTVLHQDWLNGKEYKCKVSNKGLPRPIEKTISKAKGQPREPQVYTLPPSRDELTKNQVSLTCLVKGFYPSDIAVEWESNGQPENNYKTTPMVLDSDGSFFLYSKLTVDKSRWQQGNVFSCSVMHEALHNHYTQESLSLSP light: not shown
16 | 460 | 8300 | 12 | 196 | 2.4 | IL6R-BP563/IL6R-L (antibody, human IgG1, kappa, name in EU numbering, human IgG1) heavy: QVQLQESGPGLVKPSETLSLTCAVSGHSISHDHAWSWVRQPPGEGLEWIGFISYSGITNYNPSLQGRVTISRDNSKNTLYLQMNSLRAEDTAVYYCARSLARTTAMDYWGEGTLVTVSSASTKGPSVFPLAPSSKSTSGGTAALGCLVKDYFPEPVTVSWNSGALTSGVHTFPAVLQSSGLYSLSSVVTVPSSSLGTQTYICNVNHKPSNTKVDKKVEPKSCDKTHTCPPCPAPDLLGDDSVFLFPPKPKDTLMISRTPEVTCVVVDVSEEDGDVKFNWYVDGVEVHNAKTKPREEQDNSTYRVVSVLTVLHQDWLNGKEYKCKVSNKALPRPIEKTISKAKGQPREPQVYTLPPSRDELTKNQVSLTCLVKGFYPSDIAVEWESNGQPENNYKTTPPVLDSDGSFFLYSKLTVDKSRWQQGNVFSCSVMHEALHNHYTQESLSLSP light: not shown
8.4 | 300 | 5800 | 43 | 369 | 3.6 | IL6R-BP556/IL6R-L (antibody, human IgG1, kappa, name in EU numbering, human IgG1) heavy: QVQLQESGPGLVKPSETLSLTCAVSGHSISHDHAWSWVRQPPGEGLEWIGFISYSGITNYNPSLQGRVTISRDNSKNTLYLQMNSLRAEDTAVYYCARSLARTTAMDYWGEGTLVTVSSASTKGPSVFPLAPSSKSTSGGTAALGCLVKDYFPEPVTVSWNSGALTSGVHTFPAVLQSSGLYSLSSVVTVPSSSLGTQTYICNVNHKPSNTKVDKKVEPKSCDKTHTCPPCPAPELLGDDSVFLFPPKPKDTLMISRTPEVTCVVIDVGEEDGEVKFNWYVDGVEVHNAKTKPREEQDNSTYRVVSVLTVLHQDWLNGKEYKCKVSNKALPRPIEKTISKAKGQPREPQVYTLPPSRDELTKNQVSLTCLVKGFYPSDIAVEWESNGQPENNYKTTPPVLDSDGSFFLYSKLTVDKSRWQQGNVFSCSVMHEALHNHYTQESLSLSP light: not shown
5.3 | 200 | 3000 | 55 | 585 | 5.3 | IL6R-BP538/IL6R-L (antibody, human IgG1, kappa, name in EU numbering, human IgG1) heavy: QVQLQESGPGLVKPSETLSLTCAVSGHSISHDHAWSWVRQPPGEGLEWIGFISYSGITNYNPSLQGRVTISRDNSKNTLYLQMNSLRAEDTAVYYCARSLARTTAMDYWGEGTLVTVSSASTKGPSVFPLAPSSKSTSGGTAALGCLVKDYFPEPVTVSWNSGALTSGVHTFPAVLQSSGLYSLSSVVTVPSSSLGTQTYICNVNHKPSNTKVDKKVEPKSCDKTHTCPPCPAPELLGDDSVFLFPPKPKDTLMISRTPEVTCVVIDVSEEDGEVKFNWYVDGVEVHNAKTKPREEQYNSTYRVVSVLTVLHQDWLNGKEYKCKVSNKALPRPIEKTISKAKGQPREPQVYTLPPSRDELTKNQVSLTCLVKGFYPSDIAVEWESNGQPENNYKTTPPVLDSDGSFFLYSKLTVDKSRWQQGNVFSCSVMHEALHNHYTQESLSLSP light: not shown
8.4 | 330 | 5600 | 64 | 368 | 3.3 | IL6R-BP539/IL6R-L (antibody, human IgG1, kappa, name in EU numbering, human IgG1) heavy: QVQLQESGPGLVKPSETLSLTCAVSGHSISHDHAWSWVRQPPGEGLEWIGFISYSGITNYNPSLQGRVTISRDNSKNTLYLQMNSLRAEDTAVYYCARSLARTTAMDYWGEGTLVTVSSASTKGPSVFPLAPSSKSTSGGTAALGCLVKDYFPEPVTVSWNSGALTSGVHTFPAVLQSSGLYSLSSVVTVPSSSLGTQTYICNVNHKPSNTKVDKKVEPKSCDKTHTCPPCPAPELLGDDSVFLFPPKPKDTLMISRTPEVTCVVIDVGEEDGPVKFNWYVDGVEVHNAKTKPREEQDNSTYRVVSVLTVLHQDWLNGKEYKCKVSNKALPRPIEKTISKAKGQPREPQVYTLPPSRDELTKNQVSLTCLVKGFYPSDIAVEWESNGQPENNYKTTPPVLDSDGSFFLYSKLTVDKSRWQQGNVFSCSVMHEALHNHYTQESLSLSP light: not shown
6.4 | 250 | 2800 | 32 | 481 | 4.4 | IL6R-BP551/IL6R-L (antibody, human IgG1, kappa, name in EU numbering, human IgG1) heavy: QVQLQESGPGLVKPSETLSLTCAVSGHSISHDHAWSWVRQPPGEGLEWIGFISYSGITNYNPSLQGRVTISRDNSKNTLYLQMNSLRAEDTAVYYCARSLARTTAMDYWGEGTLVTVSSASTKGPSVFPLAPSSKSTSGGTAALGCLVKDYFPEPVTVSWNSGALTSGVHTFPAVLQSSGLYSLSSVVTVPSSSLGTQTYICNVNHKPSNTKVDKKVEPKSCDKTHTCPPCPAPELLGDDSVFLFPPKPKDTLMISRTPEVTCVVIDVSEEDGDVKFNWYVDGVEVHNAKTKPREEQDNSTYRVVSVLTVLHQDWLNGKEYKCKVSNKALPRPIEKTISKAKGQPREPQVYTLPPSRDELTKNQVSLTCLVKGFYPSDIAVEWESNGQPENNYKTTPPVLDSDGSFFLYSKLTVDKSRWQQGNVFSCSVMHEALHNHYTQESLSLSP light: not shown
5.5 | 230 | 4700 | 2.4 | 563 | 4.7 | IL6R-BP565/IL6R-L (antibody, human IgG1, kappa, name in EU numbering, human IgG1) heavy: QVQLQESGPGLVKPSETLSLTCAVSGHSISHDHAWSWVRQPPGEGLEWIGFISYSGITNYNPSLQGRVTISRDNSKNTLYLQMNSLRAEDTAVYYCARSLARTTAMDYWGEGTLVTVSSASTKGPSVFPLAPSSKSTSGGTAALGCLVKDYFPEPVTVSWNSGALTSGVHTFPAVLQSSGLYSLSSVVTVPSSSLGTQTYICNVNHKPSNTKVDKKVEPKSCDKTHTCPPCPAPDLLGDDSVFLFPPKPKDTLMISRTPEVTCVVVDVAEEDGEVKFNWYVDGVEVHNAKTKPREEQDNSTYRVVSVLTVLHQDWLNGKEYKCKVSNKALPRPIEKTISKAKGQPREPQVYTLPPSRDELTKNQVSLTCLVKGFYPSDIAVEWESNGQPENNYKTTPPVLDSDGSFFLYSKLTVDKSRWQQGNVFSCSVMHEALHNHYTQESLSLSP light: not shown
7.6 | 340 | 5000 | 25 | 405 | 3.2 | IL6R-BP550/IL6R-L (antibody, human IgG1, kappa, name in EU numbering, human IgG1) heavy: QVQLQESGPGLVKPSETLSLTCAVSGHSISHDHAWSWVRQPPGEGLEWIGFISYSGITNYNPSLQGRVTISRDNSKNTLYLQMNSLRAEDTAVYYCARSLARTTAMDYWGEGTLVTVSSASTKGPSVFPLAPSSKSTSGGTAALGCLVKDYFPEPVTVSWNSGALTSGVHTFPAVLQSSGLYSLSSVVTVPSSSLGTQTYICNVNHKPSNTKVDKKVEPKSCDKTHTCPPCPAPELLGDDSVFLFPPKPKDTLMISRTPEVTCVVIDVGEEDGDVKFNWYVDGVEVHNAKTKPREEQDNSTYRVVSVLTVLHQDWLNGKEYKCKVSNKALPRPIEKTISKAKGQPREPQVYTLPPSRDELTKNQVSLTCLVKGFYPSDIAVEWESNGQPENNYKTTPPVLDSDGSFFLYSKLTVDKSRWQQGNVFSCSVMHEALHNHYTQESLSLSP light: not shown
5.7 | 210 | 4600 | 96 | 539 | 5.1 | IL6R-BP540/IL6R-L (antibody, human IgG1, kappa, name in EU numbering, human IgG1) heavy: QVQLQESGPGLVKPSETLSLTCAVSGHSISHDHAWSWVRQPPGEGLEWIGFISYSGITNYNPSLQGRVTISRDNSKNTLYLQMNSLRAEDTAVYYCARSLARTTAMDYWGEGTLVTVSSASTKGPSVFPLAPSSKSTSGGTAALGCLVKDYFPEPVTVSWNSGALTSGVHTFPAVLQSSGLYSLSSVVTVPSSSLGTQTYICNVNHKPSNTKVDKKVEPKSCDKTHTCPPCPAPELLGDDSVFLFPPKPKDTLMISRTPEVTCVVIDVSEEDGPVKFNWYVDGVEVHNAKTKPREEQDNSTYRVVSVLTVLHQDWLNGKEYKCKVSNKALPRPIEKTISKAKGQPREPQVYTLPPSRDELTKNQVSLTCLVKGFYPSDIAVEWESNGQPENNYKTTPPVLDSDGSFFLYSKLTVDKSRWQQGNVFSCSVMHEALHNHYTQESLSLSP light: not shown
